Assay results published in the RNAGym collection of RNA variant scans (doi:10.7554/elife.90254).

B1: OR4K15 (parent)
chain: GUUAACGGUCAUAGGCCAUGGAAACUAGGAGCACCAUUUCGCUGCCAGUGAAGAAAUGAACAAAGAAAAUCUGGGCCAGGCAGGCAUCAAAAGAAAUAGUCUUGCGCUCAACCAGAAAGUCUGUAAUCAUUUUAAGGGUA

Variants of: B1
Assay: self-cleavage, relative activity (ratio to wild type); higher = more cleavage; in vitro, sequencing; the parent is a self-cleaving ribozyme
Variant GUUAACGGUCAUAGGCCAUGGAAACUAGGAGCACCAUAUCGCUGCCAGUGAAGAGAUGAACAAAGAAAAUCUGGGCCAGGCAGGCAUCAAAAGAAAUAGUCUUGCGCUCAACCAGAAAGUCUGUAAUCAUUUUAAGGGUA has a self-cleavage of 1. For GCUAACGGUCAUAGGCCAUGGAAACUAGGAGCACCAUUUCGCUGCCAGUGAAGAAAUGAACAAAGAAAACCUGGGCCAGGCAGGCAUCAAAAGAAAUAGUCUUGCGCUCAACCAGAAAGUCUGUAAUCAUUUUAAGGGUA, the self-cleavage was 0.46. GUUAACGGUCAUAGGCCAUGGGAACUAGGAGCACCAUUUCGCUGCCAGUGAAGAAAUGAACAAAGAAAAUCUGGGCCAGGCAGGCAUCAAAAGAAAUAGUCUUGCGCUCAACCAGAAAGUCUGUAAUCAUUUUAAGGGUA showed a self-cleavage of 1.09. In the case of GUUAACGGUCAUAGGCCAUGGAAACUAGGAGCACCAUUUCGCUGCCAGUGAAGAAAUGAGCAAAGAAAAUCUGGGCCAGGCAGGCAUCAAAAGAAAUAGUCUUGCGCUCAACCAGAAAGACUGUAAUCAUUUUAAGGGUA, the self-cleavage is reported as 1.93. Variant GUUAACGGUCAUAGGCCAUGGAAACUAGGAGCACCAUUUCGCUGCCAGUGAAGAAAUGAACAAAGAAAAUCUGUGCCAGGCAGGCAUCAAAAGAAAUAGUCUUGCGCUCAACAAGAAAGUCUGUAAUCAUUUUAAGGGUA has a self-cleavage of 0.04. In the case of GUUAACGGUCAUAGGCCAUGGAAACUAGGAGCAUCAUUUCGCUGCCAGUGAAGAAAUGAACAAAGAAAAUCUGGGCCAGGCAGGCAUCAAAAGAAAUAGUCUUGUGCUCAACCAGAAAGUCUGUAAUCAUUUUAAGGGUA, the self-cleavage is reported as 0.4. Work on GUUAACGGUCAUAGGCCAUGGAAACUAGGAGCACCAUUUCGCUGCCAGUGGAGAAAUGAACAAAGAAAAUCUGGGCCAGGCAGGCAUCAAAAGAGAUAGUCUUGCGCUCAACCAGAAAGUCUGUAAUCAUUUUAAGGGUA yielded a self-cleavage of 1.7. Variant GUUAACGGUCAUAGGCCAUGGAAACUAGGAGCACUAUUUCGCUGCCAGUGAAGAAAUGAACAAAGAAAAACUGGGCCAGGCAGGCAUCAAAAGAAAUAGUCUUGCGCUCAACCAGAAAGUCUGUAAUCAUUUUAAGGGUA has a self-cleavage of 0.97. GUUAACGGUCAAAGGCCAUGGAAACUAGGAGCACCAUUUCGCUGCCAGUGAAGAAAUGAACAAAGAAAAUCUGGGCCAGGCAGGCAUCAAAAGAAGUAGUCUUGCGCUCAACCAGAAAGUCUGUAAUCAUUUUAAGGGUA gave a self-cleavage of 1.43. GUUAACGGUCAUAGGCCAUGGAAACUAGGAGCACCAUUUCGCUGCCAGUGAAGAAAUGAACAAAGAAAAUCUGGGCCAGGCAAGCAUCAAAAGAAAUAGUCUUGCGCUCAACCAGAAAGUCCGUAAUCAUUUUAAGGGUA showed a self-cleavage of 1.87. In the case of GUUAACGGUCAUAGGCCAUGGAAACUAGGAGCACCAUUUCGCUGCCAGUGAAGAAAUGUACAAAGAAAAUCUGGGCCAGGCAGGCAUCAAAAGAAAUAGUCUUGCGCUCAACCAGAAGGUCUGUAAUCAUUUUAAGGGUA, the self-cleavage is reported as 0.75. Work on GUUAACGGUCAUAGGCCAUGGAAACUAGGAGCACCAUUUCGCUGCCAGUGAAGAAAUGAACAAAGAAAGUCUGGGCCAGGCUGGCAUCAAAAGAAAUAGUCUUGCGCUCAACCAGAAAGUCUGUAAUCAUUUUAAGGGUA yielded a self-cleavage of 0.18. GUUAACGGUCAUAGGCCAUGGAAACUAGGAGCACCAUUUCGCUGCCAGUGAAGAAAUGAACAAAGAAAAUCUGGGCCAGGCUGGCAUCAAAAGAAAUAGUCUUGCGCUCAACCAGAAAGUCUGUAAUCAUAUUAAGGGUA gave a self-cleavage of 0.07. With GUUAACGGUCAUAGGCCCUGGAAACUAGGAGCACCAUUUCGCUGCCAGUGAAGAAAUGAACAAAGAAAAUCUGGGCCAGGCGGGCAUCAAAAGAAAUAGUCUUGCGCUCAACCAGAAAGUCUGUAAUCAUUUUAAGGGUA the self-cleavage was 0.44. GUUAACGGUCAUAGGCCAUGGAAACUAGGAGCACCAUUUCGCUGCCAGUGAAGAAAUGAACAAAGAAAAUCUGGGCCGGGCAGGCAUCAAAAGAAAUAGUCCUGCGCUCAACCAGAAAGUCUGUAAUCAUUUUAAGGGUA showed a self-cleavage of 0.31. GUUAACGGUCAUAGGCCAUGGAAACUAGGAGCACCCUUUCGCUGCCAGUGAAGAAAUGAACGAAGAAAAUCUGGGCCAGGCAGGCAUCAAAAGAAAUAGUCUUGCGCUCAACCAGAAAGUCUGUAAUCAUUUUAAGGGUA showed a self-cleavage of 2. In the case of GUUAACGGUCAUAGGCCAUGGAAACUAGGAGCACCAUAUCGCUGCCAGUGAAGAAAUGAACAAAGAAAAUCUGGGCCAGGCAGGCAUCUAAAGAAAUAGUCUUGCGCUCAACCAGAAAGUCUGUAAUCAUUUUAAGGGUA, the self-cleavage is reported as 2.11. Variant GUUAACGGUCAUAGGCCAUGGAAACUAGGAGCACCAUUUCGCUGCCAGUGAAGAAAUGAACAAAGAAAAUCUGGGCCAGGCAGGCAUCAAAAGAAAUAGUCUUGCGCUCAACCAGAUGGUCUGUAAUCAUUUUAAGGGUA has a self-cleavage of 0.97. GUUAACGGUCAUAGGCCAUGGAAACUAGGAGCACCAUUUCGCUGCCAGUGAAGAAAUGAACGAAGAAAAUCUGGGCCAGGCAGGCAUCAAAAGAAAUAGUCUUGCGCUCAACCAGAAAGUCUGUAAUCAUUGUAAGGGUA showed a self-cleavage of 0.5. GUUAACGGUCAUAGGCCAUGGAAACUAGGAGCACCAUUUCGCUGCCAGUGUAGAAAUGAACAAAGAAAAUCUGGGCCUGGCAGGCAUCAAAAGAAAUAGUCUUGCGCUCAACCAGAAAGUCUGUAAUCAUUUUAAGGGUA gave a self-cleavage of 0.36. In the case of GUUAACGGUCAUAGGACAUGGAAACUAGGAGCACCAUUUCGCUGCCAGUGAAGAAAUGAACAAAGAAAAUCUGGGCCAGGCAGGCAUCAAAAGAAAUAGUCUUGCGCUCAACCAGAAAGUCUGUAGUCAUUUUAAGGGUA, the self-cleavage is reported as 1.2.
